Measured values reported in patent publication US20210355194A1 (TWIST BIOSCIENCE, published 2021).
Like-named read-outs stand apart in the source and are kept apart here.

Experiments:
[1] = target: T1, SARS-COV2-S1 RBD (mouse IgG2Fc tag) (SARS-CoV-2, UniProt P0DTC2 319-537); experiment: column not explained; likely FACS, S1 RBD on Vero E6
[2] = target: T1, SARS-COV2-S1 RBD (mouse IgG2Fc tag); experiment: FACS, blocks S1 RBD-mFc binding to ACE2 on Vero E6
[3] = target: T2, Acro SARS-CoV-2 (COVID-19) S1 protein (SARS-CoV-2, UniProt P0DTC2 16-685); experiment: SPR
T2 construct: also called SARS-CoV-2 S1

[4] = target: SARS-CoV-2 S1 (subunit 1) protein (SARS-CoV-2, UniProt P0DTC2 16-685); experiment: phage ELISA
S1-Fc = target: T3, S1-Fc (SARS-CoV-2, UniProt P0DTC2 14-685); experiment: phage ELISA
T3 construct: also called S1 Fc fusion protein

[5] = target: T4, COVID S1 RBD Fc fusion (Antigen 1) (SARS-CoV-2, UniProt P0DTC2 319-541); experiment: phage ELISA
T4 construct: domain: S1 RBD

[6] = target: T5, COVID S1 RBM Fc fusion (Antigen 2) (SARS-CoV-2, UniProt P0DTC2 437-508); experiment: phage ELISA
T5 construct: domain: S1 RBM

[7] = target: T1, SARS-COV2-S1 RBD (mouse IgG2Fc tag); experiment: FACS, blocks S1 RBD-mFc binding to ACE2 on Vero E6; remark: listed apart in the source

Binder | MFI Fold Decrease [1] [fold] | IC50 [2] [nM] | Kd [3] [nM] | screening ELISA (Avg), fold over background [4] [fold over background] | specificity ELISA, fold over background (S1-Fc) [fold over background] | specificity ELISA, percent binding relative to Acro S1 (S1-Fc) [%] | specificity ELISA, fold over background [5] [fold over background] | specificity ELISA, percent binding relative to Acro S1 [5] [%] | specificity ELISA, fold over background [6] [fold over background] | specificity ELISA, percent binding relative to Acro S1 [6] [%] | IC50 [7] [nM]
variant 5-1 (Fc fusion) VHH: EVQLVESGGGLVQPGGSLRLSCAASGGTFSSIGMGWFRQAPGKEREFVAAISWDGGATAYADSVKGRFTISADNSKNTAYLQMNSLKPEDTAVYYCAKEDVGKPFDWGQGTLVTVSS | 10 | 0.75 | 15.1 |  |  |  |  |  |  |  | 
variant 2-4 (antibody, V domains shown) VH: EVQLLESGGGLVQPGGSLRLSCAASGFTFSDFAMAWVRQAPGKGLEWVSAISGSGDITYYADSVKGRFTISRDNSKNTLYLQMNSLRAEDTAVYYCAREADGLHSPWHFDLWGQGTLVTVSS VL: DIQMTQSPSSLSASVGDRVTITCRASQSIDTYLNWYQQKPGKAPKLLIYAASALASGVPSRFSGSGSGTDFTLTISSLQPEDFATYYCQQSYSAPPYTFGQGTKVEIK |  |  |  | 15.5 | 7.2 | 19 | 38.8 | 103 | 1.2 | 3.1 | 
variant 2-12 (antibody, V domains shown) VH: EVQLLESGGGLVQPGGSLRLSCAASGFTFSDYPMNWVRQAPGKGLEWVSTISGSGGITFYADSVKGRFTISRDNSKNTLYLQMNSLRAEDTAVYYCVRHDEYSFDYWGQGTLVTVSS VL: DIQMTQSPSSLSASVGDRVTITCRASQSIDNYLNWYQQKPGKAPKLLIYGVSALQSGVPSRFSGSGSGTDFTLTISSLQPEDFATYYCQQSHSAPPYFFGQGTKVEIK |  |  |  | 18.2 | 14.7 | 37 | 40.3 | 101 | 1.1 | 2.9 | 
variant 2-8 (antibody, V domains shown) VH: EVQLLESGGGLVQPGGSLRLSCAASGFTFSDFAMAWVRQAPGKGLEWVSAISGSGDITYYADSVKGRFTISRDNSKNTLYLQMNSLRAEDTAVYYCAREADGLHSPWHFDLWGQGTLVTVSS VL: DIQMTQSPSSLSASVGDRVTITCRASQSIDTYLNWYQQKPGKAPKLLIYAASALASGVPSRFSGSGSGTDFTLTISSLQPEDFATYYCQQSYSAPPYTFGQGTKVEIK |  |  |  | 32.4 | 5.4 | 15 | 36.5 | 102 | 1.1 | 3.1 | 
variant 2-13 (antibody, V domains shown) VH: EVQLLESGGGLVQPGGSLRLSCAASGFTFSDYPMNWVRQAPGKGLEWVSAISGSGDNTYYADSVKGRFTISRDNSKNTLYLQMNSLRAEDTAVYYCVRHDEYSFDYWGQGTLVTVSS VL: DIQMTQSPSSLSASVGDRVTITCRASQSIDTYLNWYQQKPGKAPKLLIYGASALESGVPSRFSGSGSGTDFTLTISSLQPEDFATYYCQQSHSAPPYFFGQGTKVEIK |  |  |  | 19.1 | 3.7 | 13.4 | 32.1 | 118 | 0.9 | 3.1 | 
variant 2-5 (antibody, V domains shown) VH: EVQLLESGGGLVQPGGSLRLSCAASGFTFSDFAMAWVRQAPGKGLEWVSAISGSGDITYYADSVKGRFTISRDNSKNTLYLQMNSLRAEDTAVYYCAREADGLHSPWHFDLWGQGTLVTVSS VL: DIQMTQSPSSLSASVGDRVTITCRASQSIHTYLNWYQQKPGKAPKLLIYAASALASGVPSRFSGSGSGTDFTLTISSLQPEDFATYYCQQSYSAPPYTFGQGTKVEIK |  |  |  | 30.8 | 24.3 | 63.3 | 35.9 | 93.7 | 1.1 | 3 | 
variant 5-20 (Fc fusion) VHH: EVQLVESGGGLVQPGGSLRLSCAASGRTIVPYTMGWFRQAPGKERELVAAISPSAFTEYADSVKGRFTISADNSKNTAYLQMNSLKPEDTAVYYCAARRWGYDWGQGTLVTVSS | 12.4 | 1.23 | 14.3 |  |  |  |  |  |  |  | 
variant 5-34 (Fc fusion) VHH: EVQLVESGGGLVQPGGSLRLSCAASGRTFSRYIMGWFRQAPGKEREFVAAISWSGGDNTYYADSVKGRFTISADNSKNTAYLQMNSLKPEDTAVYYCAAYRIVVGGTSPGDWRWGQGTLVTVSS | 5.69 | 1.21 |  |  |  |  |  |  |  |  | 
variant 5-37 (Fc fusion) VHH: EVQLVESGGGLVQPGGSLRLSCAASGSTFSINAMGWFRQAPGKEREFVGGISRSGATTNYADSVKGRFTISADNSKNTAYLQMNSLKPEDTAVYYCAADGVPEYSDYASGPVWGQGTLVTVSS | 8.19 | 1.01 | 30.2 |  |  |  |  |  |  |  | 
variant 2-2 (antibody, V domains shown) VH: EVQLLESGGGLVQPGGSLRLSCAASGFTFSRHAMNWVRQAPGKGLEWVSGISGSGDETYYADSVKGRFTISRDNSKNTLYLQMNSLRAEDTAVYYCARDLPASYYDSSGYYWHNGMDVWGQGTLVTVSS VL: DIQMTQSPSSLSASVGDRVTITCRASQTINTYLNWYQQKPGKAPKLLIYSASTLQSGVPSRFSGSGSGTDFTLTISSLQPEDFATYYCQQSYSTFTFGQGTKVEIK [variant 2-2, listing 1 of 2 here] |  |  |  | 23.4 | 4.7 | 12 | 39.6 | 100 | 1.1 | 2.8 | 
variant 2-2 (antibody, V domains shown) VH: EVQLLESGGGLVQPGGSLRLSCAASGFTFSRHAMNWVRQAPGKGLEWVSGISGSGDETYYADSVKGRFTISRDNSKNTLYLQMNSLRAEDTAVYYCARDLPASYYDSSGYYWHNGMDVWGQGTLVTVSS VL: DIQMTQSPSSLSASVGDRVTITCRASQTINTYLNWYQQKPGKAPKLLIYSASTLQSGVPSRFSGSGSGTDFTLTISSLQPEDFATYYCQQSYSTFTFGQGTKVEIK [variant 2-2, listing 2 of 2 here] |  | 0.56 |  |  |  |  |  |  |  |  | 0.56
